Substrate in the series: NC(=O)c1cccnc1
In words: purified protein. It is filed as biochemical, Escherichia coli. The conditions noted are these: 20 mM ribose-1-phosphate, 50 mM MES pH 6.0, 37 °C, 30 min, 0.1 mg/ml xapA, NR synthesis direction.

B1: xanthosine phosphorylase (xapA; purine nucleoside phosphorylase II, PNP-II) (Escherichia coli K-12) (protein)
chain: MSQVQFSHNPLFCIDIIKTYKPDFTPRVAFILGSGLGALADQIENAVAISYEKLPGFPVSTVHGHAGELVLGHLQGVPVVCMKGRGHFYEGRGMTIMTDAIRTFKLLGCELLFCTNAAGSLRPEVGAGSLVALKDHINTMPGTPMVGLNDDRFGERFFSLANAYDAEYRALLQKVAKEEGFPLTEGVFVSYPGPNFETAAEIRMMQIIGGDVVGMSVVPEVISARHCDLKVVAVSAITNMAEGLSDVKLSHAQTLAAAELSKQNFINLICGFLRKIA
notes: ORF from E. coli genomic DNA in pET28a (EcoRI/HindIII), expressed in E. coli Rosetta (DE3), Ni-NTA purified (His-tag), tag removal not described
Usually Km stands for the substrate concentration at which the rate is half of its maximum. In the case of B1, the Km is 5.81 mM.

(Values after PMC3923242, “New function for Escherichia coli xanthosine phophorylase (xapA): genetic and biochemical evidences on its participation in NAD^+ salvage from nicotinamide” (BMC Microbiology, 2014).)
